Measurements from the supplement of paper PMC10567573.

B1: C8orf76 (parent)
chain: LYLQLAICSSLQNLEKTIFCLQKL
B2: PPEF2 (parent)
chain: AFKAAALIQRWYRRYVARLEMRRR

Variants of: B1
Assay: protein stability index of a GFP-peptide fusion (GPS, HEK-293T) (PSI 1-6); higher = more stable
Conditions: c terminus: a fixed tail appended
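Note: lentivirally expressed fusions sorted by FACS into six bins by GFP to DsRed ratio, PSI derived from sequencing read proportions per bin multiplied by bin number.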

Protein stability index, by site and new letter:
C20: A 2.85 | E 1.86 | Y 2.18 | R 3.09 | T 2.13 | M 1.94 | I 2.15 | F 2.83 | K 2.36 | G 3.1 | H 3.83 | W 2.66 | D 2.93 | P 1.88 | V 3.44
T17: W 4.22 | N 2.46 | Q 3.45 | V 2.84 | Y 3.47 | P 1.98
L21: P 3.85 | A 2.77 | E 1.42 | D 2.09 | G 3.2 | N 2.25 | S 2.59 | C 2.88 | F 3.62 | R 2.08 | Y 3.14 | H 2.76
I18: F 2.57 | M 1.11 | N 5.27 | W 3.03 | K 2.22 | Y 2.94 | R 2.41 | E 1.79 | H 2.6 | L 2.46 | Q 2.44 | P 4.2
F19: K 3.04 | L 3.21 | C 2.27 | V 2 | I 2.8 | M 3.62 | E 1.81 | G 2.83 | N 3.32 | A 2.89 | Y 4.28 | T 1.71 | W 2.24
L24: S 1.49 | I 2.35 | E 1.75 | F 3.39 | W 2.79 | C 3.89 | K 3.43 | D 4.2 | Q 3.56 | P 4.07 | A 2.13
Q22: T 3.32 | N 2.31 | W 1.93 | C 2.56 | K 3.39 | D 2.46 | P 2.69 | I 1.46 | V 2.58 | S 1.58 | M 3.12 | F 3.5
K23: N 2.11 | F 2.92 | P 2.54 | S 1.89 | R 3.49 | Q 4.24 | M 1.58 | I 2.72 | T 2.15 | W 3.62 | L 2.27 | Y 3.53 | D 2.02 | G 3.17

Variants of: B2
Assay: as above
Conditions: c terminus: a fixed tail appended

Protein stability index, by site and new letter:
K3: L 1.75 | S 4.09 | F 2.38 | Y 2.87 | C 1.86 | D 2.27 | E 3.71 | I 2.66 | R 3.84
A6: D 3.14 | Q 3.88 | P 1.95 | L 2.5 | T 4.02 | E 3.81 | C 4.25 | V 4.97 | F 2.77 | K 2.83 | Y 1.75
F2: K 3.04 | N 3.3 | Y 3.46 | P 3.78 | G 2.87 | L 3.99 | A 3.87 | M 3.8 | D 3.53 | E 4.95 | W 3.79 | R 3.76
A4: F 3.17 | C 3.15 | S 2.13 | V 2.55 | R 3.46 | G 3.69 | P 2.38 | K 3.27 | M 2.25
A5: R 2.39 | G 2.94 | F 1.98 | T 2.55 | E 4.4 | N 2.11 | Q 1.85 | P 2.08 | H 2.67 | I 2.4
A1: C 3.54 | F 2.62 | E 4.09 | L 4.05 | P 3.44 | V 3.96 | N 3.6 | D 2.36 | I 3.77 | T 3.4 | M 3.01 | R 3.66 | G 2.17 | Q 3.52 | W 1.77 | H 2.59
L7: G 2.33 | A 4.83 | M 2.25 | I 4.77 | F 3.21
